Results on four substances are retold here after patent US20130039933.

In data set [1] the test system is A366 peptide (STING peptide substrate with alanine at 366).
Data set [2] deals with S366 peptide (STING peptide substrate with serine 366).

Turning to CK1δ, the Activity (cpm) was 15600 cpm in data set [1] and 25200 cpm in data set [2]. In data set [2], this substance showed a Fold induction of 1.62 fold.
With NEK6, the Activity (cpm) in data set [1] is 5510 cpm; in data set [2], 35600 cpm. This substance also displayed a Fold induction in data set [2] of 6.45 fold.
For NEK7 the same measures were 3620 cpm, 19100 cpm and 5.28 fold.
For PIM2 the same measures were 1410 cpm, 3720 cpm and 2.63 fold.
